T1: rat α-CGRP (Rattus norvegicus, UniProt P01256)
T1 sequence (P01256 83-119 limits assumed): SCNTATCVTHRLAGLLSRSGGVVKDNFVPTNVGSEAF

T2: human α-CGRP (Homo sapiens, UniProt P06881)
T2 sequence (P06881 83-119 limits assumed): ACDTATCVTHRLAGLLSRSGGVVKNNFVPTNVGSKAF

T3: human α-CGRP binding to the CGRP1-receptor (Homo sapiens, UniProt P06881)
T3 construct: host or cells: receptor: endogenous, membranes of SK-N-MC cells
T3 sequence (P06881 83-119 limits assumed): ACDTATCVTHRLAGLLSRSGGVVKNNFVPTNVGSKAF

T4: human β-CGRP (Homo sapiens, UniProt P10092)
T4 construct: and
T4 sequence (P10092 82-118 limits assumed): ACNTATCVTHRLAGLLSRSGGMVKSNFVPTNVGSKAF

T5: rat β-CGRP (Rattus norvegicus, UniProt P10093, R105S)
T5 sequence (P10093 89-125 R105S limits assumed): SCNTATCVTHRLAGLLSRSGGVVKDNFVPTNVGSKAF

T6: α-rat CGRP (Rattus norvegicus, UniProt P01256)
T6 sequence (P01256 83-119 limits assumed): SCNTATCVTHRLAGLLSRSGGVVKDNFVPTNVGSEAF


Columns and labels:
TNBS treated rats = experiment: Rat TNBS colitis visceral pain model, balloon distension of the colon; format: in vivo; settings: intravenous, FIG. 1A and 1B
Experimental: Colorectal distension after TNBS-induced colitis in rats is an animal model that has been used by many researchers to explore the mechanisms of visceral hypersensitivity (Gay et al, 2006, Delafoy et al, 2006, Adam et al., 2006). In this Example, the rat TNBS colitis model was used to test the effect of a function-blocking antibody for CGRP. In the model, as in the human IBS studies, the visceral pain threshold is measured by response to balloon distension of the colon.
After overnight fasting, rats were anesthetized with ketamine (80 mg/ml)/xylazine (12 mg/ml) at a dosage of 1 ml/kg. An abdominal laparotomy was performed and a TNBS solution (50 mg at 1.5 ml/kg in 30% ethanol, “TNBS treatment group”) or 30% ethanol solution (“sham group”) was injected into the proximal colon 1 cm distal from ceacum. The sham group was used as a non-colitis control. […]
The seventh day following surgery, after a second overnight fast, TNBS treated rats sustaining a weight loss of no greater than 11% were tested for visceral pain threshold with balloon distension. […] Balloon distension was halted at the threshold pressure required to elicit a stereotypical rodent visceral pain posture known as the alpha position (repeated waves of contraction of oblique musculature with inward turning of the hindpaw) and this was recorded as the visceral pain threshold.

[1] = cited from earlier work
[2] = system: visceral hypersensitivity (VH); settings: systemically injected; Delafoy 2006, Plourde 1997, Julia and Bueno 1997; cited from earlier work
rat α-CGRP = biological target: T1, rat α-CGRP; experiment: Biacore interaction analysis of Fab fragments, N-biotin α-rat CGRP on chip; format: binding
Experimental: (§1) Interaction analysis was conducted at 25° C. and at 37° C. on a Biacore 3000™ system equipped with streptavidin-coated (SA) sensor chips (Biacore AB, Uppsala, Sweden) using standard Biacore running buffers (HBS-P or HBS-EP). N-LC-biotinylated human and rat α- and β-CGRPs were captured on individual flow cells at low levels (typically 100 response units) to provide the reaction surfaces, while an unmodified flow cell served as a reference channel. Purified Fab fragments of antibodies G1 and G2 were generated. Typically, Fabs were prepared as a two-fold serial dilution using 0.5 μM as the top concentration and injected for 1-min at 100 μl/min allowing up to two hours for the dissociation time. Surfaces were regenerated with a mixture of 50% v/v ethanol+25 mM NaOH for G1 Fab and 2:1 v/v Pierce Gentle Elution Buffer/4M NaCl for G2 Fab. […] The binding responses were double-referenced and fit globally to a simple model using BiaEvaluation v. 4.0 software. Affinities were deduced from the quotient of the kinetic rate constants (KD=koff/kon).
(§2) As such, the offrate (koff) cannot be measured accurately unless the dissociation phase is monitored for a very long time. As a general rule-of-thumb, the binding response decays at least 5% over the allowed dissociation time for the report of an accurate offrate. However, monitoring long dissociation times on the Biacore is hindered by baseline drift, which is particularly challenging when working at the low surface capacities required for kinetic analyses. In this study, the dissociation phase was followed for two hours over the α-CGRPs but only 20 mins over the β-CGRPs. As a result, the offrates for β-CGRPs cannot be resolved as accurately as those for α-CGRPs.

human α-CGRP [3] = biological target: T2, human α-CGRP; experiment: Biacore interaction analysis of Fab fragments, N-biotin α-human/cyno CGRP on chip; format: binding
Experimental: as §1, §2

[4] = biological target: T3, human α-CGRP binding to the CGRP1-receptor; experiment: Binding assay: blocking 125I-human α-CGRP from binding to CGRP1-receptor on SK-N-MC cell membranes; settings: IC50 higher than Biacore KD at equivalent temperature
Experimental: A binding assay was performed to measure the IC50 of anti-CGRP G1 antibody in blocking human α-CGRP from binding to the CGRP1-receptor. […] Incubation was terminated by filtration through a glass microfiber filter (GF/B, 1 μm) which had been blocked with 0.5% polyethylenimine. The protein-bound radioactivity was determined in a gamma counter.

human β-CGRP = biological target: T4, human β-CGRP; experiment: Biacore interaction analysis of Fab fragments, N-biotin β-human/cyno CGRP on chip; format: binding
Experimental: as §1, §2

human α-CGRP [5] = biological target: T2, human α-CGRP; settings: Table 6 reproduced from WO2007/054809; cited from earlier work
rat β-CGRP = biological target: T5, rat β-CGRP; experiment: Biacore interaction analysis of Fab fragments, N-biotin β-rat CGRP on chip; format: binding
Experimental: as §1, §2
The results for antibody G2 are expressed in Table 2.

α-rat CGRP = biological target: T6, α-rat CGRP; settings: Table 6 reproduced from WO2007/054809; cited from earlier work
[6] = β-human/cyno CGRP, 37° C., 20 min dissociation
[7] = β-rat CGRP, 37° C., Fab, 20 min dissociation

| koff (rat α-CGRP; 25° C.) | kon (rat α-CGRP; 25° C.) | koff (rat α-CGRP; 37° C.) | kon (rat α-CGRP; 37° C.) | koff (human α-CGRP [3]; 25° C.) | kon (human α-CGRP [3]; 25° C.) | koff (human α-CGRP [3]; 37° C.) | kon (human α-CGRP [3]; 37° C.) | Molecule | further results |
| --- | --- | --- | --- | --- | --- | --- | --- | --- | --- |
|  |  |  |  |  |  |  |  | CGRP 8-37: a CGRP receptor antagonist | effect on visceral pain threshold, 4901 compared with CGRP 8-37 (TNBS treated rats): comparable; half-life in-vivo [1]: very short half-life in-vivo; reversing visceral hypersensitivity (VH) [2]: effective in reversing visceral hypersensitivity (VH) |
| 6.18e-05 s⁻¹ | 50800 M⁻¹ s⁻¹ | 0.000399 s⁻¹ | 155000 M⁻¹ s⁻¹ | 7.8e-06 s⁻¹ | 186000 M⁻¹ s⁻¹ | 3.63e-05 s⁻¹ | 587000 M⁻¹ s⁻¹ | G1: anti-CGRP antagonist antibody produced by expression vectors ATCC PTA-6867 and PTA-6866; VH SEQ ID NO: 1, VL SEQ ID NO: 2 [Clone G1] | IC50 relative to KD observed by Biacore [4]: 23 fold; koff (human β-CGRP; [6]): <6.98e-05 s⁻¹; kon (human β-CGRP; [6]): 451000 M⁻¹ s⁻¹; α-human koff (human α-CGRP [5]): 3.63e-05 s⁻¹; koff (rat β-CGRP; [7]): <7.85e-05 s⁻¹; kon (rat β-CGRP; [7]): 516000 M⁻¹ s⁻¹; α-rat koff (α-rat CGRP): 0.000399 s⁻¹ |
| 0.000214 s⁻¹ | 231000 M⁻¹ s⁻¹ | 0.0017 s⁻¹ | 500000 M⁻¹ s⁻¹ | 0.00115 s⁻¹ | 60300 M⁻¹ s⁻¹ | 0.0039 s⁻¹ | 93000 M⁻¹ s⁻¹ | G2: anti-rat CGRP mouse monoclonal antibody as described in Wong H C et al. Hybridoma 12:93-106, 1993; VH SEQ ID NO: 19, VL SEQ ID NO: 20 (antibody, V domains shown, Synthetic polypeptide, Antibody G2 heavy chain variable region; Synthetic polypeptide, Antibody G2 light chain variable region) VH: EVQLQQSGPELVKPGASVKMSCKASGYTFTSSVMHWVKQKPGQGLEWIGYINPYNDGTKYNEKFKGKATLTSDKSSSTAYMELSSLTSEDSAVYYCAKGGNDGYWGQGTTLTVSS VL: EIVLTQSPTTMAASPGEKITITCSASSSISSIYLHWYQQKPGFSPKVLIYRASNLASGVPARFSGSGSGTSYSLTIGTMEAEDVATYYCQQGSTIPFTFGSGTKLEIK | Kd (human α-CGRP [3]; 25° C.): 0.019 µM; Kd (human β-CGRP; β-human CGRP, 25° C.): 0.02 µM; koff (human β-CGRP; β-human CGRP, 25° C.): 0.00162 s⁻¹; kon (human β-CGRP; β-human CGRP, 25° C.): 81400 M⁻¹ s⁻¹; binding characteristics to β-rat CGRP (rat β-CGRP; reverse orientation assay format (data not shown)): comparable binding characteristics to α- and β-human CGRPs |

Reference: patent US8623366B2, “Methods for treating visceral pain by administering antagonist antibodies directed against calcitonin gene-related peptide” (Labrys Biologics, Inc., priority 2009, dated 2014)
